The numbers were not newly measured in paper PMC8472222, which cites them from elsewhere.

Usually Kd stands for the concentration at which binding is half-saturated.

The target in the data set is Rad57 (Saccharomyces cerevisiae) (UniProt P25301).
Chain of UniProt P25301 (P25301 whole entry): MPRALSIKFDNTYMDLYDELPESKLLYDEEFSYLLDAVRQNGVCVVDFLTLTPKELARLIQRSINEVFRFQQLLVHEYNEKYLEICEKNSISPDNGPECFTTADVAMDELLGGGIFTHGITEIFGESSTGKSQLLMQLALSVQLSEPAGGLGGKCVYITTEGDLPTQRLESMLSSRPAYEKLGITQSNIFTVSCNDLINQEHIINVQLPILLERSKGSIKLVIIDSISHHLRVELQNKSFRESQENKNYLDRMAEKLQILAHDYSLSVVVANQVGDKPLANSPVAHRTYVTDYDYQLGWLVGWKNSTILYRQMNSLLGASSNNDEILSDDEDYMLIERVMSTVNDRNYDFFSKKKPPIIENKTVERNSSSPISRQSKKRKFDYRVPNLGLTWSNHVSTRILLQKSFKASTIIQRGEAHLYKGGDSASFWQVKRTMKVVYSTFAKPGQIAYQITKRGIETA

For Rad55 (from UniProt P38953), the Kd is less than 200 pM.
